Measured values published in the RNAGym collection of RNA variant scans (doi:10.1093/nar/gkz1192).

B1: CPEB3 Ribozyme (parent)
chain: UAACAGGGGGCCACAGCAGAAGCGUUCACGUCGCAGCCCCUGUCAGAUUCUGGUGAAUCUGCGAAUUCUGCUGUAUAUCUC

Variants of: B1
Assay: self-cleavage, relative activity (ratio to wild type); higher = more cleavage; in vitro, sequencing
How it was run: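 Barcoded CPEB3 ribozyme mutants, produced by rounds of error-prone PCR, self-cleaved while being transcribed with T7 RNA polymerase for 5 hours at 37°C and during a subsequent 15 min DNase I step before EDTA was added. Sequencing of template-switched cDNA on Illumina gave cleaved and total reads, and DNA sequencing assigned barcodes to variants. Each variant's relative activity is its cleaved/total read fraction divided by the unmutated ribozyme's fraction, averaged across three batches. A variant needed a minimum of 5 reads.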

Variant | self-cleavage
U43G U58C | 0.14
C44G C71U | 0.15
A45C U49C | 0.11
A45C U48C | 0.4
G42U U74C | 0.35
U43A A75C | 1.36
U43A A75G | 1.01
U43A A75U | 1.19
U43A C79A | 1.22
U43A C59G | 0.41
U43C U66C | 0.33
U43C U66A | 0.24
U43C U66G | 0.45
U43G A75G | 0.24
U43G A75U | 0.35
C44U U66A | 0.51
U43C C71A | 0.36
U43C C71U | 0.36
U43C C71G | 0.28
U43C G73C | 1.19
U43C G73U | 1.2

Variant | self-cleavage
U43C G73A | 1.13
C44A A77G | 0.43
U43A C50A | 1.07
C44U U58C | 0.28
U43C A47C | 0.06
U43C A47U | 0.39
U43C A47G | 0.58
C44U A45G | 0.41
C44U A45C | 0.46
C44G U80C | 0.78
C44G U80A | 0.52
U43G A57G | 0.21
U43C C68G | 0.11
U43C C68U | 0.32
U43C C68A | 0.28
C44A U48C | 0.32
A45C A47G | 0.17
U43A C71U | 0.49
U43G U49C | 0.28
C44G A57G | 0.45
C44G A56G | 0.44

Variant | self-cleavage
A45C | 0.38
U43A A64U | 0.51
U43A A64G | 1.04
G42U U80C | 0.51
C44A U51A | 0.11
U43G C62U | 0.26
U43G C62G | 0.43
A45C U60A | 0.33
A45C U60C | 0.41
A45C U58C | 0.33
C44A A56U | 0.21
C44G U74C | 1.02
C44G U74A | 1.18
U43A C68U | 1.15
C44U U80C | 0.29
C44U U80A | 0.46
U43A A56G | 0.97
U43A A56U | 0.88
U43A A56C | 0.73
C44U U48C | 0.44
U43A G46A | 0.44

Variant | self-cleavage
U43A G46U | 0.45
C44A U67C | 0.16
C44U U78A | 0.3
C44U U78G | 0.12
C44U U78C | 0.35
C44U U51A | 0.35
C44U U51C | 0.1
U43G U69C | 0.35
C44A U69G | 0.13
C44A U69C | 0.17
U43A G55A | 0.77
U43G A65G | 0.34
U43C C81U | 0.7
U43C C81A | 0.92
U43G U78C | 0.28
U43C U78C | 0.49
U43C U78A | 0.63
U43C U78G | 0.65
C44U U72C | 0.19
C44U U72A | 0.14
C44G U67C | 0.18
